The nature of this data set: soluble on expression in E. coli; label from the status in PepcDB or PDB records.
In the case of “MGSDKIHHHHHHTCSACIQYHESCAWCGAPMFDEKKPYARCDSRAKLMEHGCPNSYIEDPATKLDITEDSKLSDQGQVESEEEAVQIKPQEMYVEIRPKSRVRFNVTYRQAVDYPVDLYYLMDLSYSMKDDKQKLSELGDLLAERMRTVTKNFRLGFGSFIDKKLMPFIDPRIEKQLSPCPTPCAEPYGFKHQMSLTTNTAKFKAEVDKAEISGNLDAPEGGFDAVVQALACNKTIGWRERARKMIVFSTDAGFHFAGDGRLAGVVEPNDGTCHLDREGYYTETLNQDYPSIALLHQMIKDRKANVIFAVTKNNQDLYTQLSNALPDVSSSVGVLANDSRNIVDLIEKEYLKISEKIIMVDNANASEGLKLTYRSMCLDGTTLKDTNVCEGIRVGDEVQFEVTLENTHCIDKRDFVLRIGPSGLDETLIVNVKVLCDC”, the “soluble on expression in E. coli” value is recorded as “not soluble”.

For the sequence “GSYTLSEKDLKELDSIRDSFQCMNEPLDNDQQASTLAKKEHNPTDILNVMDITMRRLVKMAKRLGAFNEISEAGKFSLLKGGMIEMLTIRGVTVFNADKGVWQTPVDGHSQISFNMFDKLRPDIKDTQKKGFLHFFNLLHSDVRKNDLAIDIIVLMVLFDSKREGLVSQQDKETVEKLHRNYESLLHRYLYSIHKEEAEQRFASIPKALVALRKVAENAVTLFLGAGNTTEAASLPKEFFATNY”, the “soluble on expression in E. coli” value is on record as “soluble”.

With “MAHHHHHHMAKERNLDLKALQRSKRTVAHAYDAGVRSVPPALPLDIGGALAQVLTTRVTTCFGLHLIVTAQNEDAEQQSAPSLLMDVAVRAHLERLPLPVLHRLISDLCEVRAAWKRDLLAPSAAAAVQEQALLGRESINALLYHVCLWQRRYPLELLSAVLSFYDEHKHLFSPATSERCSASVQLESLLEEVQCLQYPDLSDVPGLIRCDVFMTYPHMPLGEQRQLMHTIAAAVVHRKAAGGLQRQSSCMGTEEKYVTDNLLRHSRTPPDPRLLLRSFVVDGAAAIPERFCTDMPTQTYHEMRAAFERHKHDGVRRLAAQDYGQAVTELTPPPPPPPPQPAASSVPSS”, the “soluble on expression in E. coli” value was “not soluble”.

Consider “MKILVAVKQTAALEEDFEIREDGMDVDEDFMMYDLNEWDDFSLEEAMKIKESSDTDVEVVVVSVGPDRVDESLRKCLAKGADRAVRVWDDAAEGSDAIVVGRILTEVIKKEAPDMVFAGVQSSDQAYASTGISVASYLNWPHAAVVADLQYKPGDNKAVIRRELEGGMLQEVEINCPAVLTIQLGINKPRYASLRGIKQAATKPIEEVSLADIGLSANDVGAAQSMSRVRRMYIPEKGRATMIEGTISEQAAKIIQIINEFKGA”, for which the “soluble on expression in E. coli” value is “soluble”.

As to “MGSDKIHHHHHHMRIQVASDLHHELAVSNSAMAARLEHADDAVDVLVLAGDIHNQTGAIDLYADYPVPVVYVCGNHEFYGTEMLQLLPELRRRAVGTSVKLLEKDELILNNVRFLGCTMWTDYHAFPLCLNTAMEYARNHMLDHQRIRESNNGRFEPEDAAEEQRAALEFLVRKIREPFPGKTVVITHHAPSARSIHQHEQNNPLVPAFASNLEFLASEADLWIHGHIHLSSDYRLGNCRVICNPRGYPGRRNRSNPALAYENAQFDARKVIDV”, the “soluble on expression in E. coli” value was “not soluble”.

Turning to “MKPTERRILLGRIVGAFGVKGELKLESWTEPRSAIFRYQPWIVRTPSGQESVLSGVRGRDQGKNLIAVFPDITDRDTVEAMHGTEIYVARSALPPPKPDEYYWVDLEGLQVETVEGVKLGTVSHLFSTGSNDVVVVRGDRERMIPFVLPEYVKSVDFEANLIVVDWDPDFLEHHHHHH”, the “soluble on expression in E. coli” value was “soluble”.

For “MGSDKIHHHHHHMSLDLSTPLQLIGRSVEFQRVVEVLAQDGDLLITGVPGSGRRTLVRWGVTEVRAIALDIDCIRATDGERFLQLLTEAINQNWQAEKIQSWLDKNAKEFFTFHPETKLKLLRSLSQKQIWQAFELLLELPQIMAVDLNKRLVLILQSFPHIRSWDRNGLWEISFRRKIKEHTHVSYVLIATIAETGNYSDENNYPLETIQLPPLNRDVLAVWAREILHGSKLTFDSRSKALQLFLDAVQGHIGDAMAIIRRLQTLCVPDSLVTENDVQQAIEGLLKDLSMTYESLLMLLPANQVHLLECLALDPTEKPQSKDYIQKHGLSRGGSLQGALTGLHHKGLIYGAEQGYLLAMPLLALWLRQRLS”, the “soluble on expression in E. coli” value is recorded as “not soluble”.

With “MGSDKIHHHHHHMTHIVHKGLDFFVKPQKVSLNLNMKIGSLKVHPEDLKLLMKKVPVFMMSYYDNKAFMERELEISSADFPNGVVFFSYYEPVPAELNWDVDKKLISQLTKYFHLYDLVHSINSLIDETEGSSLHIGVYEEWLDRIMVKVPSENTEELRNMLSRFSLLYTTKILWKIFRGNFEELKKRTHEIAYKLYEVAGF”, the “soluble on expression in E. coli” value was “not soluble”.

In the case of “MTDEFKKSTANLKKAVPLMIKNHVAATPANYALWYTYVDKTIPELNFEMDEVLEHYGICPPAANKQLYNNYVASRAETSLEDLKTNVEVLLHEVSSSMSDTLSDTSSFSAMVDKSFNKLEKVEDNSLSIEEVMVVIRQLVAESHEIRHSTKFLNRQLTNASEEISR”, the “soluble on expression in E. coli” value is recorded as “not soluble”.

As for “MGSDKIHHHHHHMSTPIPSLADAPPVLCVHGIGKTYAEPVLADVSLELRAGEVLALTGENGAGKSTLSKIVGGLVTPTTGSMTLGGAAYAPASRKDAEALGVRMVMQELNLLPTLSVAENLFLNRLPRNLVGWIDRARLRENARHAMAQVGLDAIDPDTLVGTLGIGHQQMVEIARNLIGDCRVLILDEPTAMLTAREVDLLFEQVERLKAHGVALVYISHRLEELKRIARRAAVLRDGRLVHVDEMANLSTDRLVTLMVGRDIGDRIDLGERRIGEVAFKVSGMTREPVVRDVSFEVRAGEIFGISGLIGAGRTELMRLIYGADHADAGSVSLGRGGAAPEPVTIASPSDAVQHGIALITEDRKGEGLLLTQPIAANISLGHLRAVSNKGVVDGRREAALARRQIDAMRIRSAGPSQPVSELSGGNQQKVVIGRWLARDCTVLLFDEPTRGIDVGAKFDIYALMGALAREGRALVVVSSDLRELMAICDRIGVMSAGRMTGLFERGNWTQDALLAAAFAGYAKRDDLLHEPIEPDAKAPDESKLVEY”, the “soluble on expression in E. coli” value is recorded as “not soluble”.

As to “MGSDKIHHHHHHMGRTLGVGTVTPNLIGAHRDLIQRYGGHYPVISAHIWFDGTGLDPRYQYVTVLRDPVDRFISWLYFIDKDVELTEDTRELKVGAQLFLRSEGEETNQTFMRSASNPYVNNFSSVVMRCNASWQQKMVAALSVLTDYDLVGFQADLPQFIEQLAKLLHVINYVSLRPVNVTSSRPQRDGISEKMLHAIRKLTEWDLELYSEIQRMANRQAPTIGVSCNIQPFNREFGDWGFKARKSSNVYWLGSYLTHYLAKDLSTRNGSVAGRALVSNGAKGYLCHGPYLDLDPGHYCAVANGVWITRGVTCNADVCSGKGAVLHAEETLVDLGAKGTEWSLPVDFALDEETTSVEFRLMVPDEHQVQLNTVTIVNEKMVMTILGLEPDSHAANRGVEKQNSGSTLIFPVQMSSKIGLRVGTTLQTTGQEGFLCYGPYMTLSRGIYRVNLMGSIGPQGLAGAYADIVCDAGKKGIHNEPLAITPFNEYVDSTVGKPWMFFLEQDVSDLEIRLWVSNQTEINLCGIVLQQIEET”, the “soluble on expression in E. coli” value was “not soluble”.

Turning to “MSGDFDTIRDASSPDEVQLVRLLEEKIKSLQIEIENLRKELNYYKAEMEKMLSPPLIEAVVLDVLPDGRVLVRSSSGPNLVVNIASHIDQKLIKPGISVALNQRGSTILEVLPQKE”, the “soluble on expression in E. coli” value is listed as “soluble”.

On to “MDTSDHKPLIDRFETEFAEKSSLLRKEESELKRPDLRGDFLCLSCGQNFKHGASLNRHRKLVHSDEYTCMLCARKLYLKETVRDHMRNEHYLGQVYTCGCCNWTFSNKKALTEHAKAIQETGAPGDANPIAKSGNSPGSLLKSPIQRAGFKLNRLLNKSLSPSTSNSTTSSSSRDASGSPQPELELKLEPEPEPEPNEEALEYKRFFNNAVDTILQRNFFTDQQITEVDTWVIIIESANALATALQSYKKAQQIQPAEPAMIPEKRIKPEIE”, for which the “soluble on expression in E. coli” value was “soluble”.

Regarding “MAHHHHHHMDQFIRSRTDWKERVVFRLVWITASRWFGISGLHSQQFYTGAGRDPNLGLARGAEDGEGGSPPRLSVRQDTRAGGCVRHYKVMQDTSTQRKAHESYDCPLGASSGLLECHGAFHKTRCVEARCSNRGGVQFGPTRDPAVGEARRPVRPSPEYCLIFGEIHHNADPGVVASRIDVKRETAEGQ”, the “soluble on expression in E. coli” value is recorded as “not soluble”.

These data come from the DeepSol protein solubility set.
